# Laboratory results from patent publication US20130288389A1.
# How the values were obtained:
# Test in all cases: cell-based or functional assay
# [1] = molecular target: human sporadic CJD (sCJD) brain homogenate PrP-res (human) (UniProt P04156)
# [2] = molecular target: sheep ARQ scrapie brain homogenate PrP-res (sheep) (UniProt P23907)
# [3] = molecular target: PrP^Sc of 263K scrapie-infected Syrian golden hamsters (Syrian golden hamster) (UniProt P04273)
substance,measurement,setting,value
monoclonal antibody 15B3,eQuIC: lowest PrP-res amount detected in 0.5 ml human cerebrospinal fluid,[1],10 ag
same,eQuIC: lowest PrP-res amount detected in 0.5 ml human plasma,[1],10 ag
same,"eQuIC (""20×"" 15B3 beads): lowest PrP-res amount detected in 0.5 ml plasma",[2],100 ag
same,IP-RT-QuIC (ThT fluorescence): lowest brain dilution detected in human plasma (dilution of brain tissue),[3],1e-10
same,IP-RTQ speed and sensitivity with higher 15B3 content on beads (fold higher 15B3 on beads),[3],12
